What was measured:
[1] = target: T1, NDR2 (Homo sapiens, UniProt Q9Y2H1); assay: GST-NDR2 in vitro autophosphorylation with Ca2+/S100B; format: biochemical; conditions: after 4 hours of incubation
T1 construct: made in house; host or cells: E. coli (inferred from b139 and b74)
Protocol: (§1) All other procedures (including bacterial expression, kinase assays, immunodetection and mass spectrometry) were carried out essentially as described in the Methodology section above.
(§2) The sequence conservation between NDR1 and NDR2 also encompasses the previously defined S100 binding domain of NDR1. Therefore, the in vitro effect of Ca2+/S100B on NDR2 activity was measured in a time and concentration dependent manner. Ca2+/S100B increases the rate of NDR2 autophosphorylation by ˜2-fold after 4 hours of incubation, as measured by mass spectrometry anlaysis, and it stimulates the specific NDR activity in a concentration dependent manner up to ˜4-fold. […] After in vitro incubation of GST-NDR2 in the presence and absence of Ca2+/S100B, the proteins were digested with trypsin, and the resultant mixture was analysed by ESI-MS-MS in a −79 precursor scan, measuring the mass charge ratio (m/z) of all peptide species that liberate a single phosphate group after fragmentation. The identity of 5 NDR2 derived phosphopeptides could be determined in both samples, the GST-NDR2 and the GST-NDR2/Ca2+/S100B.

[2] = tested on: GST-NDR1; assay: Immunodetection of GST-NDR1 phosphorylated on Ser281 or Thr444 after in vitro autophosphorylation; format: biochemical, human; conditions: in vitro autophosphorylation with or without Ca2+/S100B
Protocol: Either 1 microgram GST-NDR1 or HA-NDR1 immunoprecipitated from 100 microgram COS-1 detergent extracts as described above was separated on 10% SDS-PAGE and immunoblotted 2 h at RT or overnight at 4° C. with anti-Ser281P antisera (1:1000) in the presence of 50 microg/ml competing unphosphopeptide or anti-Thr444P purified antibody (1:500). Both antibodies were detected with horseradish peroxidase-conjugated donkey anti-rabbit Ig antibody (Amersham biosciences) and developed by ECL (chemiluminescence; Amersham Pharmacia Biotech).
To reliably quantify the effect of S100B on NDR1 phosphorylation status, rabbit polyclonal antibodies were raised against phosphoepitopes comprising Ser281 or Thr444. GST-NDR1 mutants were treated essentially as described in Example 2 and detected either with anti-NDR1_C-term antiserum or polyclonal antibodies recognising NDR1 phosphorylated on Ser281 or Thr444.

[3] = target: T1, NDR2; assay: NDR2 specific kinase activity in vitro with Ca2+/S100B; format: biochemical; conditions: concentration dependent
Protocol: as §1, §2

[4] = target: T2, GST-NDR1 (Homo sapiens, UniProt Q15208); assay: GST-NDR1 kinase assay (peptide kinase assay); format: biochemical
T2 construct: made in house; host or cells: E. coli BL21-DE3-pRep4
Protocol: 1 microgram of purified recombinant GST-NDR1 wild type and mutants (without further treatment or autophosphorylated for 2 h in the presence or absence of 1 mM CaCl2 and […] (Sigma)) were assayed in 20 microliter of reaction mixture containing 20 mM Tris-HCl pH 7.5, 10 mM MgCl2, 1 mM DTT, 100 microM [gamma-^32P]ATP (˜0.5 microCi/microliter), and 1 mM NDR1 substrate peptide ([…]; SEQ ID NO:22). After 30 mins incubation at 30° C., reactions were stopped with 50 mM EDTA, and 10 microliters of reaction mixture were spotted onto 2 cm^2 squares of P81 phosphocellulose paper (Whatman). These were subsequently washed for 4×5 min and 3×20 min in 1% phosphoric acid and once in acetone before counting in a liquid scintillation counter. One unit of NDR1 activity was defined as the amount which catalyses the phosphorylation of 1 nmol peptide substrate in 1 min.
Specific activity of GST-NDR1 mutants was also measured by a peptide kinase assay as described above. For this purpose, 1 microgram of purified GST-NDR1 wild type and alanine mutants were left without further treatment or autophosphorylated for 2 h in the presence or absence of 1 mM CaCl2 and […].
Target sequence in this assay (Q15208 whole entry): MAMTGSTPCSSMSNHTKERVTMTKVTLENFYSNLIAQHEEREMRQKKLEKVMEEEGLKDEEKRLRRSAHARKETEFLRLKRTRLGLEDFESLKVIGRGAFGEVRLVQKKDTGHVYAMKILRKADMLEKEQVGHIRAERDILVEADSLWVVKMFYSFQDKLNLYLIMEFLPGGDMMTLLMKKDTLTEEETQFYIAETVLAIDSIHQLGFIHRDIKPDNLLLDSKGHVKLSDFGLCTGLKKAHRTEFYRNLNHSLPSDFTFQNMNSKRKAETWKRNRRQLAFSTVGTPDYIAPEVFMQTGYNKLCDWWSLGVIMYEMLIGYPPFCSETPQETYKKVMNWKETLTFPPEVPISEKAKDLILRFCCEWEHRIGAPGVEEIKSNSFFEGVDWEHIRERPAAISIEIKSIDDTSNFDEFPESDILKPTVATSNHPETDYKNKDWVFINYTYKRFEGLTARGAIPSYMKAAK

[5] = target: T2, GST-NDR1; assay: GST-NDR1 in vitro autophosphorylation, incorporated 32P by Cerenkov counting; format: biochemical; conditions: on both Ser281 and Thr444
Protocol: BL21-DE3-pRep4 E. coli strain was transformed with the pGEX-2T_NDR1 wild type or mutant plasmids. BL21-DE3 is a protease-deficient E. coli strain and pRep4 is a Laclq repressor-bearing plasmid both available commercially. Optionally, if desired, an E. coli strain comprising GroESL can be used, which expresses a chaperone protein that stabilizes the kinase. Mid-logarithmic phase cells were induced with 0.5 mM isopropyl beta-D-thiogalactopyranoside (IPTG) for 4 hours at 30° C. Bacteria were lysed using a French press in the presence of 1 mg/ml lysosyme, and the fusion proteins were purified on glutathione-agarose (Amersham Pharmacia Biotech) as described by the manufacturers. Recombinant proteins were assayed for kinase activity as described below and autophosphorylation was determined after SDS-PAGE separation either by Cerenkov counting or by exposure to a PhosphorImager screen followed by analysis with ImageQuant software (Molecular Dynamics).
In brief, 1 microgram of purified GST-NDR1 (in solution ˜0.5 microM) wild type, kinase dead (K118A), and alanine mutants of phosphorylation residues Thr74, Ser281, and Thr444 were autophosphorylated for 2 hours in vitro without further additions or in the presence of 1 mM CaCl2 and 10 microM bovine S100B. Proteins were visualized on SDS gels using Coomassie Blue R-350 stained SDS-PAGE gel, and [gamma-^32P]ATP-labelled proteins were visualized by autoradiography of the gels developed on a Phosphorimager screen. The amount of incorporated ^32P was quantified by Cerenkov counting.
Target sequence in this assay (Q15208 2-465): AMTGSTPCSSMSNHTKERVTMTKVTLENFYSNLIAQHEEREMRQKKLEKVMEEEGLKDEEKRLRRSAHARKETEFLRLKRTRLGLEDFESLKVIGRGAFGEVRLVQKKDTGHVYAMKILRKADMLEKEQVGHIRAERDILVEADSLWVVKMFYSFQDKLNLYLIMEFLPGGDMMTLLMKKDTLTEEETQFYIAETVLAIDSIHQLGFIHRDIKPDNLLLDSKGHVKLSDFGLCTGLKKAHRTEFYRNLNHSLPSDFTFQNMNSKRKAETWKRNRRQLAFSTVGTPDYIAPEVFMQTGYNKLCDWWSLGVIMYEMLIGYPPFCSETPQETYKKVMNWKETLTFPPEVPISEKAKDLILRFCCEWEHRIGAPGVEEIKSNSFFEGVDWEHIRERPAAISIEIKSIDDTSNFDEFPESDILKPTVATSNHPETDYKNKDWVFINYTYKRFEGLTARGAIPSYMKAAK

[6] = tested on: HA-NDR1; assay: HA-NDR1 kinase assay on 12CA5 immunoprecipitates from transfected, treated COS-1 cells; format: cell-based, human; conditions: COS1 cells cotransfected with HA-NDR1, treated with OA; versus empty vector
Protocol: In some experiments, the cells were treated for 60 min with 1 microM okadaic acid in 0.1% N,N-dimethylformamide (DMF) (Alexis Corp.), 50 microM BAPTA-AM (1,2-bis (o-aminophenoxy) ethane-N,N,N′,N′-tetraacetic acid tetra (acetoxy-methyl)ester) in 0.1% diimethylsulfoxide (DMSO; Sigma), or 20 microM thapsigargin in 0.1% DMSO (Alomone) 24 hours after transfection.
Transfected and treated COS-1 cells were washed once with ice-cold PBS, and harvested by rubber policeman in 1 ml ice-cold PBS containing 1 mM Na3VO4 and 20 mM beta-glycerophosphate before lysis in 500 microliters of IP buffer (20 mM Tris-HCl pH 8.0, 150 mM NaCl, 1% Nonidet P-40, 10% glycerol, 1 mM Na3VO4, 20 mM beta-glycerolphosphate, 1 microM microcystin-LR, 50 mM NaF, 0.5 mM PMSF, 4 microM leupeptin, 1 mM benzamidine, and 1 tablet/10 ml IP of Complete protease inhibitors (Roche)). Lysates were centrifuged at 20 000 g for 20 min and triplicate aliquots (200 microg) of supernatant were precleared with protein A-Sepharose (Amersham Pharmacia Biotech) for 60 min and mixed subsequently for 3 h at 4° C. with 12CA5 antibody prebound to protein A-Sepharose (˜1 microg antibody bound to 2 microl beads). The beads were then washed twice with IP buffer, once for 10 min with IP buffer containing 1 M NaCl, once again for 10 min with IP buffer, and finally twice with 20 mM Tris-HCl pH 7.5 containing 4 microM leupeptin and 1 mM benzamidine. […] After 60 min incubation at 30° C., 15 microliters of supernatant were removed, and phosphate incorporation into the substrate peptide determined as described for GST-NDR1 above. […]
To test whether hMOB1 plays a role in NDR activation, myc-hMOB1 or the empty vector was cotransfected with HA-NDR1 in COS1 cells and treated with OA. […] The reactions were resolved on a 10% SDS PAGE and the radioactivity visualised by using a phosphoimager.

[7] = target: T3, HA-NDR (Homo sapiens, UniProt Q15208); assay: Autophosphorylation of immunoprecipitated HA-NDR with added GST-MOB or GST; format: biochemical; conditions: added to HA-NDR kinase reactions; GST as control
T3 construct: expressed in transfected cells; host or cells: COS-1 (HA-NDR1)
T3 sequence (Q15208 whole entry, one chain of several): as the sequence (Q15208 whole entry) above
Protocol: To test whether hMOB1 plays a role in NDR activation, myc-hMOB1 or the empty vector was cotransfected with HA-NDR1 in COS1 cells and treated with OA. 12CA5 immunoprecipitates were then assayed using the peptide kinase assay for HA-NDR kinase activity. […] GST-MOB and GST respectively was added to immunoprecipitated HA-NDR and kinase reaction were performed. The reactions were resolved on a 10% SDS PAGE and the radioactivity visualised by using a phosphoimager.

T1 sequence (Q9Y2H1 whole entry, one chain of several): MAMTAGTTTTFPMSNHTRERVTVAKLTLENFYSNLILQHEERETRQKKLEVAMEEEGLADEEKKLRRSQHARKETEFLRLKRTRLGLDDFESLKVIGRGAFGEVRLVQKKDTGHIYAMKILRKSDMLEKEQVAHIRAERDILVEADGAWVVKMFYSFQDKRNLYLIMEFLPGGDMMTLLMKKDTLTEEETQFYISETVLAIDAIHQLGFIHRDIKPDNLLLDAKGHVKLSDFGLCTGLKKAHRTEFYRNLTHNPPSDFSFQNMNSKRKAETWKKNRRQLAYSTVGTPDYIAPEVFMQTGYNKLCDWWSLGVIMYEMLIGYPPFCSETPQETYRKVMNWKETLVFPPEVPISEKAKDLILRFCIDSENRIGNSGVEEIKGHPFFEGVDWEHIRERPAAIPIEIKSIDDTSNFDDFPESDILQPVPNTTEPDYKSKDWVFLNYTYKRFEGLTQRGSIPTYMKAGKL

B1: S100B: bovine S100B, EF-hand Ca2+-binding protein, added with 1 mM CaCl2 (protein)
chain: SELEKAVVALIDVFHQYSGREGDKHKLKKSELKELINNELSHFLEEIKEQEVVDKVMETLDSDGDGECDFQEFMAFVAMITTACHEFFEHE
- increase of the rate of NDR2 autophosphorylation [1]: ~2 fold
- phosphorylation of GST-NDR1 on Ser281 and Thr444 (phosphospecific antibodies) [2]: enhance phosphorylation on both Ser281 and Thr444
- stimulation of specific NDR activity (NDR2) [3]: ~4 fold
- increase in kinase activity of wild-type GST-NDR1 on addition of S100B [4]: ~5 fold
- increase in autophosphorylation of wild-type GST-NDR1 on addition of S100B [5]: ~2 fold

B2: hMOB1: human MOB1 (GI: 11691898, SEQ ID NO:5), myc-tagged, cotransfected with HA-NDR1 (protein)
chain: MSFLFSSRSSKTFKPKKNIPEGSHQYELLKHAEATLGSGNLRQAVMLPEGEDLNEWIAVNTVDFFNQINMLYGTITEFCTEASCPVMSAGPRYEYHWADGTNIKKPIKCSAPKYIDYLMTWVQDQLDDETLFPSKIGVPFPKNFMSVAKTILKRLFRVYAHIYHQHFDSVMQLQEEAHLNTSFKHFIFFVQEFNLIDRRELAPLQELIEKLGSKDR
modifications: left off: small tags and cut ends
- stimulation of OA stimulated NDR kinase activity by cotransfected myc-hMOB1 [6]: two to threefold stimulation

B3: GST-hMOB1: GST fusion of hMOB1 added to HA-NDR kinase reactions (protein)
chain: MSFLFSSRSSKTFKPKKNIPEGSHQYELLKHAEATLGSGNLRQAVMLPEGEDLNEWIAVNTVDFFNQINMLYGTITEFCTEASCPVMSAGPRYEYHWADGTNIKKPIKCSAPKYIDYLMTWVQDQLDDETLFPSKIGVPFPKNFMSVAKTILKRLFRVYAHIYHQHFDSVMQLQEEAHLNTSFKHFIFFVQEFNLIDRRELAPLQELIEKLGSKDR
modifications: left off: a dimerising Fc or GST
notes: GST fusion of hMOB1 added to HA-NDR kinase reactions
- effect on NDR autophosphorylation activity [7]: stimulated NDR autophosphorylation activity
